For 5 molecules, IC90, inhibition of fusion (syncytia) induced by Aldrithiol-2 inactivated HIV-1 in SUP-T1 cells, IC50, neutralization of HIV-1 Env pseudovirus in TZM-bl cells and mean IC80, inhibition of HIV-1 infection of PBMC from 75 donors results are on record in patent US20110318360A1.

Experiment [1] addresses HIV-1 B.ADA Env on Aldrithiol-2 inactivated virions (HIV-1).
Experiment [2] concerns the target HIV-1 B.AD8 Env on Aldrithiol-2 inactivated virions (HIV-1).
Experiment [3] has as its target HIV-1 B.MN Env on Aldrithiol-2 inactivated virions (HIV-1).
Experiment [4] concerns the target HIV-1 C.DU123 Env (HIV-1).
Experiment [5] concerns the target Env of HIV-BaL.LucR.T2A.ecto/hPBMC (HIV-1).

Regarding 2F5 (antibody), the IC90, inhibition of fusion (syncytia) induced by Aldrithiol-2 inactivated HIV-1 in SUP-T1 cells is under 1.2 µg/mL in experiment [1], 3.4 µg/mL in experiment [2] and under 1.2 µg/mL in experiment [3].

Turning to Bavituximab (antibody), the IC50, neutralization of HIV-1 Env pseudovirus in TZM-bl cells (in experiment [4]; with HIV-1 B.6535 Env (HIV-1); with HIV-1 B.PVO Env (HIV-1)) was over 50 µg/mL throughout.

On to 4E10 (antibody), for which the mean IC80, inhibition of HIV-1 infection of PBMC from 75 donors in experiment [5] worked out at 20.4 µg/mL. Moreover, the IC50, neutralization of HIV-1 Env pseudovirus in TZM-bl cells is under 2 µg/mL in experiment [4], under 2 µg/mL in the experiment with HIV-1 B.6535 Env (HIV-1) and 2.2 µg/mL in the experiment with HIV-1 B.PVO Env (HIV-1). Also, the IC90, inhibition of fusion (syncytia) induced by Aldrithiol-2 inactivated HIV-1 in SUP-T1 cells in experiment [1] is under 1.2 µg/mL; in experiment [2], 10 µg/mL; in experiment [3], under 1.2 µg/mL.

As for IgG1b12 (antibody), the mean IC80, inhibition of HIV-1 infection of PBMC from 75 donors in experiment [5] is 9.2 µg/mL.

B1: mAb 11.31 (PGN 632) (antibody, V domains shown)
VH: QVQLQESGPGLVKPSGTLSLTCAVSGGSISSSNWWSWVRQPPGKGLEWIGEIYHSGSTNYNPSLKSRVTISVDKSKNQFSLKLSSVTAADTAVYYCARSRFRSWLVKRRYVYFDYWGQGTLVTVSS
VL: SSELSQDPAVSVALGQTVRITCQGDSLRSYYASWYQQKPGQAPVLVIYGKNNRPSGIPDRFSGSSSGNTASLTITGAQAEDEADYYCNSRDSSGNVVFGGGTKVTVL
Consider B1, for which the IC50, neutralization of HIV-1 Env pseudovirus in TZM-bl cells (in experiment [4]; in the experiment with HIV-1 B.6535 Env (HIV-1); with HIV-1 B.PVO Env (HIV-1)) was over 50 µg/mL in each case.
